Results as given in the nanobody polyreactivity screen of Harvey et al. (2022).

Assay: yeast display, Sf9 membrane polyspecificity reagent, FACS + sequencing; frameworks hold sequencing errors
In short: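 Synthetic nanobody libraries on Saccharomyces cerevisiae BJ5465 were galactose-induced for 36–48 hours, stained 1 hour at 4 °C with 10% biotinylated, detergent-solubilized Sf9 membrane reagent and enriched on streptavidin microbeads. FACS then separated cells into low and high (top ~1%) gates by anti-HA (expression) and streptavidin (reagent binding) fluorescence. Genes were colony-PCR amplified, MiSeq 2 × 250 sequenced and CDR-length filtered. A clone's polyreactivity label is that of its gate of origin.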

Sequence	polyreactivity (PSR sort gate)
QVQLVESGGGLVQAGGSLRLSCAASGSTFGYNAMGWSRPAPGKERELVAAITWSGGSTYYADSVKGRFTISRDNAKNTVYLQMNSLKPEDTAVYYCAADDWYNSKWHYYYWGQGTQVTVSS	low polyreactivity
QVQLVESGGGLVQAGGSLRLSCAASGSTYPYPYTMGWSRQAPGKERELVAVISRTGGSTFYADSVKGRFTISRDNAKNTVHLQMNSLKPEDTAVYYCAARRDGWTFWKYDYWGQGTQVTVSS	high polyreactivity
QVQLVESGGGLVQAGGSLRLSCAASVITFSYNAMGWYRQAPGKERELVAAISSNSDSTYYADSVKGRFTISRDIAKNTVYLQMNSLKPVDTAVYYCAADTPDAPDYSGFYYWGQGTQVTVSS	low polyreactivity
QVQLVESGGGLVQAGGSLRLSCADSGSIQYYAMGWYRQAPGKERELVAAITWSGVSTSYADSVKGRFTISRDNAKNTVYLQMNRLKPEDTAVYYCNKDPGTLYGDLDSWGQGTQVTVSS	low polyreactivity
QVQLVESGGGLVQAGGSLRLSCAASGRTFASNAMGWYRQAPGKERELVAAITRGGSTYYADSVKGRFTISRDNAKNTVYLQMNSLKPEDTAVYYCAADRWWYQNEVDYWGQGTQVTVSS	low polyreactivity
QVQLVESGGGLVQAGGSLRLSCAASGSTFTTYAMGWYRQAPGKERELVAAISRTGGVTYYADTVKGRFTISRDNGKKTVYLQMNSLKPDDTAVYYCNAGLFRGAQFDYWGLGTQVTVSS	high polyreactivity
QVQLVESGGGLVQAGGSLRLSCAASGNIFHDNAMGWYRQAPGKERELVAAISDSGGSTYYADSVKGRFTISRDTAKNTVYLQMNSLKPEDTAVYYCDSGRTYYAPYQWWYDYWGQGTQVTVSS	high polyreactivity
QVQLVESGGGLVQAGGSLRLSCAASGFTFYSYAMGWSRQAPGKERELVAAISGGGGSTYYADSVKGRFTISRDNAKNTVYLQMNSLKPEDTAVYYCAKRPAYRGYGLGYYWGQGTQVTVSS	high polyreactivity
QVQLVESGGGLVQAGGSLRLSCAASGRTFDGYAMGWYSQAPGKERELVAALSSRSGRTYYADSVKGRFTISRDNAKNTVYLQMNSLKPEDTAGYYCAAVNKPRSEDYGYWGQGTQVTVSS	high polyreactivity
QVQLVESGGGLVQAGGSLRLSCAASGIIFEYYAMGWYRQAPGKERELVASITSSDGSTYYADSVKGRFTISRDNAKNTVYLQMNSLKPEDTAVYYCAAAGDYVVPISSTAGFGGDYWGQGTQVTVSS	low polyreactivity
QVQLVESGGGLVQAGCSLRLSCAASGSTFRRYAMGWYRQAPGKERELVAAISGGGTSTYYADSVEGRFTISRDNAKNTVDLQMNSLKPEDTAVYYCNAKTYYARYDYWGQGTQVSVSS	high polyreactivity
QVQLVESGGGLVQAGGSLRLSCAASGIILAGYGMGWYRQAPGKERELVAAINGCGGSTYYADSVKGRFTISRDNAKNTVYLQMNSLKPEDTAVYYCATDWWSGLYYYWGQGTQVTVSS	high polyreactivity
QVQLVESGGGLVQAGGSLRLSCAASGSALYAMGWYRQAPGKEMELVADISRRGGSTFYADSVKGRFTISRDKAKNTVYLQMNSLKPEDTAVYYCAAEFITYHGDDHYYWGQGTQVTVSS	low polyreactivity
QVQLVESGGGLVQAGGSLRLSCAASGRIFAPYAMGWYRQAPGKERELVAAITRGGITNYADSVKGRFTISRDNAKNTVYLQMNSLKPEDSAVYYCETVVNRRGFYQYFYWGQGTQVTVSS	high polyreactivity
QVQLVESGGGLVQAGGSLRLSCAASGGTRFTNAMGWYRQAPGKEREMVAAISWRGGRTYYADSVKGRFTISRDNAKNTVYLQMNSQKPEDTAVYYCAAASAAGYDYWGQGTQVTVSS	low polyreactivity
QVQLVESGGGLVQAGGSLRLSCAASGFTFKGNAMGWYRQAPGKESELVAGISRSGRTYYADSVKGRFTISRDNAKNSVYLQMNSLKPEDTAVYYCNARNQGWASLPTMGYWGQGTQVTVSS	high polyreactivity

Sequence	polyreactivity (PSR sort gate)
QVQLVESGGGLVQAGGSLRLSCAASGFTIRQYAMGWYRQAPGKERELVAAISGRGGTTYYADSVKGRFTISRDNAKNTVYLQMNSLKPEDTAVYYCAARTFDRGKIPPPYDYWGQGTQVTVSS	high polyreactivity
QVQLVESGGGLVQAGGSLRLSCAASGFTFEKYAMGWYRQAPGKERELVAAITQSAGSTYADSVKGRFTISRDNAKNTVYLQMNSLKPVDTAVYYCAARYRYPYYARYGYWGQGTQVTVSS	high polyreactivity
QVQLVESGGGLVQAGGSLRLSCAASGFSVPLYTMGWYRQAPGKERELVAAISVTGGSTYYADSVKGRFTISRDNAQNTVYLPMNSLKPEDTAVYYCNAYLFFLNRVWSFDYWGQGTQVTVSS	low polyreactivity
QVQLVESGGGLLQAGGSLRLSSAASGFIFTKYNMGWYRQAPGKERELVDAIDTGGNTYADSVKGRFTISRDNAKNTVYLQMNSLKPEDTAVYYCSVDGGEFSSYGYWGQGTQVTVSS	low polyreactivity
QVQLVESGGGLVQAGGSLRLSCAASGSIFGSYAMGWYRQAPGKERELVAGITYRGSSTYYADSVKGRFTISRDNAKNTVYLQMNSLKPEDTAVYYCAADPVFDEYDYWGQGTQVTVSS	low polyreactivity
QVQLVESGGGLVQAGGSLRLSCSASGFTFEEYAMGWYRQAPGKERELVAAIDYTVGSTYYADSVKGRFTISRDNAKNTVYLQINSLKPEDTAVYYCNVDLSYSFNSAYGYWGQGTQVSVSS	low polyreactivity
QVQIVESGGGLVQAVGSLRLSCAASGFIFMANAMGWYRQAPGKERELVAAITTGGRTNYADSVKGRFTISRDNAKNTVYLQMNSLKPEDTAVYYCAARYINGWVRSFYYWGQGTQVNVSS	high polyreactivity
QVQLVESGGGLDQAGGSLRLSCAASGFIFAYYAMGWYRQAPGKERELVAAISSGGRTYYADSVKGRFTISRDNAKNTVYLQLNSLKPEDTAVYYCNKRFYPEHYYWGQGTQVTVSS	high polyreactivity
QVQLVESGGGLVQAGGSLRVSCAASGSTFQYYAMGWYRQAPGKERELVARISDSSANTYYADSVKGRFTISRDNAKNTVYLQMNSLKPEYTAVYYCATRRSHVLSEMDYWGQGTQVTVSS	low polyreactivity
QVQLVESGGGLVQAGGSLRLSCAASGIIFVYYVMGWYRQAPGKERELVASIDGSGGSTNYADSVKGRFTISRDNAKYTVYLQMNSLKPEDTAVYYCNADNILYWSTLDYWGQGTQVTVSS	low polyreactivity
QVQLVESGGGLVQAGGSLRLSCAASGRIFYYAMGWYRPAPGKERELVAAISRSGGSTYYADSVKGRFTISRDNAKNTVYLQMNSLKPEDTAVYYCAAVIYIYPISKRDYWGQGTQVTVSS	low polyreactivity
QVQLVESGGGLVQAGGSLRLSCAASGRIFVSYAMGWYRQAPGKERELVAAINWNGDRTYYADSVKGRFTISRDNATNTVYLQMNSLKPEDTAVYYCNTDSILLPYDYWGQGTQVTVSS	low polyreactivity
QVQLVESGGGLVQAGGSLRLSCAASGFIFRDNAMGWYRQAPGKERELVAAISKSGGRTYYADSVKGRFTISRDNAKNTVYLQMNCLKPEDTAVYYCAADAYHFGRMDYWGQGTQVTVSS	high polyreactivity
QVQLVESGGGLVQAGGSLRLSCAASGGTFINYAMGWYRQAPGKERELVAGISQSGDSTYYADSVKGRFTISRDNAKNTVYLQMNSLKPEDTAVYYCNADAVAQQYDWWENYDYWGQGTQVTVSS	high polyreactivity
QVQLVESVGGLVQAVGSLRLSCAASGFTFSDYAMGWYRHAPGKERELVAAISTRCSSTYYADSVKGRFTISRDIAKNNVYLQMNSLKPEDTAVYYCNAVGSYSGYYYWGQGTQVTVSS	high polyreactivity
QVQLVESGGGLVQAGGSLRLSCAASGFTLGVNAMGWYRQAPGKERELVAAISRGGSTDYADSVKGRFTISRDNAKNTVDLQMYSLKPEDTAVYYCAAETYAWYRGWEGYWGPGTQVTVSS	high polyreactivity
